Reference: US6872536 (BRACCO IMAGING S P A, dated 2005)
Square brackets hold non-standard residues; d marks the D form. Ends that are not written are not given here. * marks the point of attachment. dimethylgly‑t‑butylgly‑cys‑gly = CN(C)CC(=O)N[C@H](C(=O)N[C@@H](CS)C(=O)NCC(=O)*)C(C)(C)C; Cyclopropanecarbonyl = O=C(C1CC1)*; Nle = CCCC[C@H](N)C(=O)O; For = O=C*

T1: N-formyl-methionyl-leucyl-phenylalanine (fMLF) receptor on elicited rat peritoneal neutrophils (rat, UniProt D4A7Q2 1-355)
T1 construct: Native receptor on whole neutrophils (PMNs); also called Rat FPR; formyl peptide receptor
T1 sequence: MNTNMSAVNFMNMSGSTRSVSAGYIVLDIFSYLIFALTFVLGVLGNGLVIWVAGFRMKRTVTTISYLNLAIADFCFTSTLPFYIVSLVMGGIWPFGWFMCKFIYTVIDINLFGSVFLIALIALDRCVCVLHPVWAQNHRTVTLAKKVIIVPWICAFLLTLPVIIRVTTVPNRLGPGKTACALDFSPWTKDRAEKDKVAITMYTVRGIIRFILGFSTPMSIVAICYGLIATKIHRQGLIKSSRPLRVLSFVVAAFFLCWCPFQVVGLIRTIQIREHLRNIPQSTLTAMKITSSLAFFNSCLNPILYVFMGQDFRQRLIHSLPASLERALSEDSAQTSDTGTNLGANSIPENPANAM

T2: N-formyl-methionyl-leucyl-phenylalanine (fMLF) receptor on human neutrophils (human, UniProt P21462 1-350)
T2 construct: whole, on cells; Native receptor on whole neutrophils from healthy volunteers; also called Human FPR; formyl peptide receptor
T2 sequence (looked up): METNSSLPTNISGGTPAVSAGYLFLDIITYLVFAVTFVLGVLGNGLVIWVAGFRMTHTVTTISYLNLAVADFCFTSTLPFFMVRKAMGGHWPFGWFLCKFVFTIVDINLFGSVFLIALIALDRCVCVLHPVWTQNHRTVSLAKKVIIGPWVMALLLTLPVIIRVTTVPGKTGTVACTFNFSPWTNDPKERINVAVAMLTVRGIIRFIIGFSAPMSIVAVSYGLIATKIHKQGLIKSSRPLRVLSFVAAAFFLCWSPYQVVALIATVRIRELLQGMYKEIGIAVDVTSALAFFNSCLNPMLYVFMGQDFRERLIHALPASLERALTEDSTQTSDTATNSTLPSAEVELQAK

B1: ReO-CyclopropylCONH-nleu-leu-phe-trp-his-lys(dimethylgly-t-butylgly-cys-gly)-gly-OH (peptide)
peptide: Cyclopropanecarbonyl-[Nle]LFWHK(dimethylgly‑t‑butylgly‑cys‑gly)G-OH
modifications: also: ReO (rhenium oxo) complex with Lys6 side-chain chelator
notes: Rhenium complex as tested; also called ReORP553 17-04; RP553-17-04
B2: ReO-CyclopropylCONH-nleu-leu-phe-tyr-his-lys(dimethylgly-t-butylgly-cys-gly)-gly-OH (peptide)
peptide: Cyclopropanecarbonyl-[Nle]LFYHK(dimethylgly‑t‑butylgly‑cys‑gly)G-OH
modifications: also: ReO (rhenium oxo) complex with Lys6 side-chain chelator
notes: Rhenium complex as tested; also called ReORP553 17-06; RP553-17-06
B3: ReO-CyclopropylCONH-nleu-leu-phe-trp-glu-lys(dimethylgly-t-butylgly-cys-gly)-gly-OH (peptide)
peptide: Cyclopropanecarbonyl-[Nle]LFWEK(dimethylgly‑t‑butylgly‑cys‑gly)G-OH
modifications: also: ReO (rhenium oxo) complex with Lys6 side-chain chelator
notes: Rhenium complex as tested; also called ReORP553 17-01; RP553-17-01
B4: ReO-CyclopropylCONH-nleu-leu-phe-ser-glu-lys(dimethylgly-t-butylgly-cys-gly)-gly-OH (peptide)
peptide: Cyclopropanecarbonyl-[Nle]LFSEKG-OH
modifications: not fully specified (residue 6); printed as ReO-CyclopropylCONH-nleu-leu-phe-ser-glu-lys(dimethylgly-t-butylgly-cys-gly)-gly-OH; also: ReO (rhenium oxo) complex on the side-chain chelate
notes: Rhenium complex as tested; also called ReORP553 17-02; RP553-17-02
B5: ReO-CyclopropylCONH-nleu-leu-phe-trp-lys-lys(dimethylgly-t-butylgly-cys-gly)-gly-OH (peptide)
peptide: Cyclopropanecarbonyl-[Nle]LFWKK(dimethylgly‑t‑butylgly‑cys‑gly)G-OH
modifications: also: ReO (rhenium oxo) complex with Lys6 side-chain chelator
notes: Rhenium complex as tested; also called ReORP553 17-07; RP553-17-07
B6: ReO-CyclopropylCONH-nleu-leu-phe-tyr-lys-lys(dimethylgly-t-butylgly-cys-gly)-gly-OH (peptide)
peptide: Cyclopropanecarbonyl-[Nle]LFYKK(dimethylgly‑t‑butylgly‑cys‑gly)G-OH
modifications: also: ReO (rhenium oxo) complex with Lys6 side-chain chelator
notes: Rhenium complex as tested; also called ReORP553 17-09; RP553-17-09
B7: ReO-CyclopropylCONH-nleu-leu-phe-ser-lys-lys(dimethylgly-t-butylgly-cys-gly)-gly-OH (peptide)
peptide: Cyclopropanecarbonyl-[Nle]LFSKK(dimethylgly‑t‑butylgly‑cys‑gly)G-OH
modifications: also: ReO (rhenium oxo) complex with Lys6 side-chain chelator
notes: Rhenium complex as tested; also called ReORP553 17-08; RP553-17-08
B8: ReO-CyclopropylCONH-nleu-leu-phe-ser-his-lys(dimethylgly-t-butylgly-cys-gly)-gly-OH (peptide)
peptide: Cyclopropanecarbonyl-[Nle]LFSHK(dimethylgly‑t‑butylgly‑cys‑gly)G-OH
modifications: also: ReO (rhenium oxo) complex with Lys6 side-chain chelator
notes: Rhenium complex as tested; also called ReORP553 17-05; RP553-17-05
B9: N-formyl-methionyl-leucyl-phenylalanyl-lysine (peptide)
peptide: For-MLFK

Experiments:
[1] = molecular target: N-formyl-methionyl-leucyl-phenylalanine (fMLF) receptor on elicited rat peritoneal neutrophils (rat) (UniProt D4A7Q2); test: cell-based or functional assay
[2] = molecular target: N-formyl-methionyl-leucyl-phenylalanine (fMLF) receptor on elicited rat peritoneal neutrophils (rat) (UniProt D4A7Q2); test: Scatchard transformation of the 3H-fMLF binding isotherm on elicited rat peritoneal neutrophils
[3] = molecular target: N-formyl-methionyl-leucyl-phenylalanine (fMLF) receptor on elicited rat peritoneal neutrophils (rat) (UniProt D4A7Q2); test: competition with 6 nM 3H-fMLF for binding to elicited rat peritoneal neutrophils, 4 C, filter harvest
[4] = molecular target: N-formyl-methionyl-leucyl-phenylalanine (fMLF) receptor on elicited rat peritoneal neutrophils (rat) (UniProt D4A7Q2); test: Scatchard analysis of 3H-fMLF saturation binding to elicited rat peritoneal neutrophils
[5] = molecular target: N-formyl-methionyl-leucyl-phenylalanine (fMLF) receptor on elicited rat peritoneal neutrophils (rat) (UniProt D4A7Q2); test: saturation binding of 3H-fMLF to elicited rat peritoneal neutrophils, one-site fit (Prism)
[6] = molecular target: N-formyl-methionyl-leucyl-phenylalanine (fMLF) receptor on human neutrophils (human) (UniProt P21462); test: competition with 6 nM 3H-fMLF for binding to human neutrophils
[7] = molecular target: T1, N-formyl-methionyl-leucyl-phenylalanine …; test: competition with 6 nM 3H-fMLF on elicited rat neutrophils
Experimental: (§1) Neutrophils isolated by peritoneal lavage were washed twice with 1 mL of HBSS− (without calcium chloride, magnesium chloride and magnesium sulfate) and centrifuged for ten minutes at 2000 rpms following each wash. PMNs utilized in functional assays were centrifuged at 25° C. while those used in binding assays were centrifuged at 4° C. to prevent internalization. A cold H_2O RBC lysis was then performed with the addition of 9 mL of sterile ice-cold H_2O and 1 mL of phosphate buffered saline (PBS) solution containing 0.1 M phosphate buffer, 0.027 M KCl and 1.37 M NaCl following resuspension of the sample in 1 mL of HBSS−. Centrifugation was subsequently performed for ten minutes at 1600 rpms. White blood cell (WBC) differential stain containing saline, 2% acidic acid and phenol violet dye was used to identify the neutrophil population and trypan blue exclusion was used to determine viability of cells.
(§2) Total binding in the competition assays was assessed in the presence of 1.0 ×10^6 PMNs per sample while non-specific binding was determined in the absence of cells. Each condition was performed in quadruplicate.

[8] = molecular target: T1, N-formyl-methionyl-leucyl-phenylalanine …; test: competition with 6 nM 3H-fMLF for binding to elicited rat peritoneal neutrophils, 4 C, filter harvest
Experimental: as §1, §2

[9] = molecular target: T2, N-formyl-methionyl-leucyl-phenylalanine …; test: competition with 6 nM 3H-fMLF for binding to human neutrophils
[10] = molecular target: T1, N-formyl-methionyl-leucyl-phenylalanine …; test: cell-based or functional assay

Molecule	MPO release, % Control (1 uM) [1] [% control]	MPO release, % Control (10 uM) [1] [% control]	fold more potent than N-t-BocMLF [7] [fold]	IC50 [8] [µM]	further results
2-acetamido-5-thiazolesulfonyl-NleLFK (peptide)	118	176			
2-methoxyacetyl-NleLFK (peptide)	95	97.1			
2-quinoxazoyl-NleLFK (peptide)	117	130			% Control MPO Release (10 uM capping group + 0.1 uM fMLF) [1]: 240 % control; % Control MPO release (1 uM capping group + 0.1 uM fMLF) [1]: 323 % control
3-but-1-enoxycarbonyl-NleLFK (peptide)	134	229			
N,N-diethylcarbamoyl-NleLFK (peptide)	114	110			% Control MPO Release (10 uM capping group + 0.1 uM fMLF) [1]: 250 % control; % Control MPO release (1 uM capping group + 0.1 uM fMLF) [1]: 283 % control
N,N-diphenylcarbamoyl-NleLFK (peptide)	143	125			% Control MPO Release (10 uM capping group + 0.1 uM fMLF) [1]: 186 % control; % Control MPO release (1 uM capping group + 0.1 uM fMLF) [1]: 322 % control
N-formyl-methionyl-leucyl-phenylalanine (peptide)					x-intercept of Scatchard transformation [2]: 34; IC50 [3]: 0.05 µM; Kd [4]: 0.0064 µM; binding sites per cell (binding sites per cell) [4]: 41000; Binding Sites/Cell (binding sites/cell) [5]: 40000; Kd [5]: 0.0061 µM; IC50 [6]: 0.005 µM; EC50 of myeloperoxidase release from elicited rat PMNs [1]: 0.11 µM
N-phenyl-N-methylcarbamoyl-NleLFK (peptide)	94.7	68			% Control MPO Release (10 uM capping group + 0.1 uM fMLF) [1]: 121 % control; % Control MPO release (1 uM capping group + 0.1 uM fMLF) [1]: 171 % control
N-tert-butyloxycarbonylated-methionyl-leucyl-phenylalanine (peptide)					IC50 [3]: 9.3 µM
adamantylcarbonyl-NleLFK (peptide)	70.5	71.7			% Control MPO Release (10 uM capping group + 0.1 uM fMLF) [1]: 129 % control; % Control MPO release (1 uM capping group + 0.1 uM fMLF) [1]: 132 % control
cyclopropylcarbonyl-NleLFK (peptide)	108	91.8			
fluorenylmethylcarbonyl-NleLFK (peptide)	84.1	59.9			% Control MPO Release (10 uM capping group + 0.1 uM fMLF) [1]: 109 % control; % Control MPO release (1 uM capping group + 0.1 uM fMLF) [1]: 162 % control
furoyl-NleLFK (peptide)	93	102			
phenylthioacetyl-NleLFK (peptide)	139	120			
trans-cinnamoyl-NleLFK (peptide)	133	196			
B1			≥ 1.5	1.77	
B2			≥ 1.5	1.22	
B3			≥ 1.5	0.73	fold greater binding affinity than N-t-BocMLF [7]: ~12 fold; fold less binding affinity than fMLF [7]: ~15 fold; IC50 [9]: 0.14 µM
B4			≥ 1.5	2.31	
B5			≥ 1.5	0.76	
B6			≥ 1.5	5.93	
B7			≥ 1.5	4.95	
B8			≥ 1.5	1.01	
B9					EC50 of myeloperoxidase release from elicited rat PMNs [10]: 0.14 µM
